Results reported in patent US20220267452A1 (Chugai, published 2022).

B1: FGA0005 bivalent Ab (FGA0005VH-F760mnN17/FGA0005VL-k0MTC) (antibody, human IgG1, kappa, N297A, V domains shown)
VH: QSLEESGGRLVTPGTPLTLTCTASGFSLSTYWICWVRQAPGEGLEWIGYISSSGNTYYASWAKGRFTISKTSSTTVDLKMTSLTTEDTATYFCGGHNSDYITGWALDPWGPGTLVTVSS
VL: AAVLTQTASPMSAAVGGTVTINCQSSKSVYRDKWLSWFQQKPGQPPKLLIYGASNLASGVSSRFKGSGSGTQFTLTISDVQCDDAATYYCLGGYSDNSEDAFGGGTEVVVKR
notes: Rabbit-human chimeric bivalent (monospecific) antibody, expressed in Expi293 cells; also called monospecific antibody FGA0005
B2: FGA0007 bivalent Ab (FGA0007VH-F760mnN17/FGA0007VL-k0MTC) (antibody, human IgG1, kappa, N297A, V domains shown)
VH: QSVEESGGRLVTPGTPLTLTCTVSGFSLSSYPMSWVRQAPGKGLEWIGIISSSGRTYYASWAKGRFTISKASSTTAALKMTSLTTEDTATYFCARGGVYKYDDYGDYVLNLWGRGTLVTVSS
VL: AIEMTQTPFSVSAAVGGTVTINCQASENIYSNLAWYQQKPGQPPKLLIYAASYLASGVPSRFKGSGSGTDYTLTISGVQCADAATYYCQCTLYSSTYGVAFGGGTEVVVKR
notes: Rabbit-human chimeric bivalent (monospecific) antibody, expressed in Expi293 cells; also called monospecific antibody FGA0007
B3: FGA0005/CD3-TRAB (FGA0005VH-F760mnN17/FGA0005VL-k0MTC//TR01H113-F760mnP17/L0011-k0) (bispecific antibody, human IgG1, kappa, N297A)
heavy 1: QSLEESGGRLVTPGTPLTLTCTASGFSLSTYWICWVRQAPGEGLEWIGYISSSGNTYYASWAKGRFTISKTSSTTVDLKMTSLTTEDTATYFCGGHNSDYITGWALDPWGPGTLVTVSSASTKGPSVFPLAPSSKSTSGGTAALGCLVKDYFPEPVTVSWNSGALTSGVHTFPAVLQSSGLYSLSSVVTVPSSSLGTQTYICNVNHKPSNTKVDKKVEPKSCDKTHTCPPCPAPELRGGPKVFLFPPKPKDTLMISRTPEVTCVVVDVSHEDPEVKFNWYVDGVEVHNAKTKPREEQYASTYRVVSVLTVLHQDWLNGKEYKCKVSNKALPAPIEKTISKAKGQPREPQVYTLPPSREEMTKNQVSLTCLVKGFYPSDIAVEWESNGQPENNYKTTPPYLDSDGSFFLYSKLTVDKSRWQQGNVFSCSVMHEALHNHYTQESLSLSP
light 1: AAVLTQTASPMSAAVGGTVTINCQSSKSVYRDKWLSWFQQKPGQPPKLLIYGASNLASGVSSRFKGSGSGTQFTLTISDVQCDDAATYYCLGGYSDNSEDAFGGGTEVVVKRTVAAPSVFIFPPSDEQLKSGTASVVCLLNNFYPREAKVQWKVDNALQSGNSQESVTEQDSKDCTYSLSSTLTLSKADYEKHKVYACEVTHQGLSSPVTKSFNRGEC
heavy 2: QVQLVESGGGVVQPGGSLRLSCAASGFTFSNAWMHWVRQAPGKGLEWVAQIKDKSQNYATYVAESVKGRFTISRADSKNSIYLQMNSLKTEDTAVYYCRYVHYAAGYGVDIWGQGTTVTVSSASTKGPSVFPLAPSSKSTSGGTAALGCLVKDYFPEPVTVSWNSGALTSGVHTFPAVLQSSGLYSLSSVVTVPSSSLGTQTYICNVNHKPSNTKVDKKVEPKSCDKTHTCPPCPAPELRGGPKVFLFPPKPKDTLMISRTPEVTCVVVDVSHEDPEVKFNWYVDGVEVHNAKTKPREEQYASTYRVVSVLTVLHQDWLNGKEYKCKVSNKALPAPIEKTISKAKGQPREPQVYTLPPSRKEMTKNQVSLTCLVKGFYPSDIAVEWESNGQPENNYKTTPPYLDSDGSFFLYSKLTVDKSRWQQGNVFSCSVMHEALHNHYTQKSLSLSP
light 2: DIVMTQSPLSLPVTPGEPASISCRSSQPLVHSNRNTYLHWYQQKPGQAPRLLIYKVSNRFSGVPDRFSGSGSGTDFTLKISRVEAEDVGVYYCGQGTQVPYTFGQGTKLEIKRTVAAPSVFIFPPSDEQLKSGTASVVCLLNNFYPREAKVQWKVDNALQSGNSQESVTEQDSKDSTYSLSSTLTLSKADYEKHKVYACEVTHQGLSSPVTKSFNRGEC
notes: Made by Fab-arm exchange (2-MEA) of the bivalent FGA0005 antibody and the anti-CD3 antibody; also called bispecific antibody FGA0005/CD3-TRAB
B4: FGA0007/CD3-TRAB (FGA0007VH-F760mnN17/FGA0007VL-k0MTC//TR01H113-F760mnP17/L0011-k0) (bispecific antibody, human IgG1, kappa, N297A)
heavy 1: QSVEESGGRLVTPGTPLTLTCTVSGFSLSSYPMSWVRQAPGKGLEWIGIISSSGRTYYASWAKGRFTISKASSTTAALKMTSLTTEDTATYFCARGGVYKYDDYGDYVLNLWGRGTLVTVSSASTKGPSVFPLAPSSKSTSGGTAALGCLVKDYFPEPVTVSWNSGALTSGVHTFPAVLQSSGLYSLSSVVTVPSSSLGTQTYICNVNHKPSNTKVDKKVEPKSCDKTHTCPPCPAPELRGGPKVFLFPPKPKDTLMISRTPEVTCVVVDVSHEDPEVKFNWYVDGVEVHNAKTKPREEQYASTYRVVSVLTVLHQDWLNGKEYKCKVSNKALPAPIEKTISKAKGQPREPQVYTLPPSREEMTKNQVSLTCLVKGFYPSDIAVEWESNGQPENNYKTTPPYLDSDGSFFLYSKLTVDKSRWQQGNVFSCSVMHEALHNHYTQESLSLSP
light 1: AIEMTQTPFSVSAAVGGTVTINCQASENIYSNLAWYQQKPGQPPKLLIYAASYLASGVPSRFKGSGSGTDYTLTISGVQCADAATYYCQCTLYSSTYGVAFGGGTEVVVKRTVAAPSVFIFPPSDEQLKSGTASVVCLLNNFYPREAKVQWKVDNALQSGNSQESVTEQDSKDCTYSLSSTLTLSKADYEKHKVYACEVTHQGLSSPVTKSFNRGEC
heavy 2: B3 heavy 2
light 2: B3 light 2
notes: Made by Fab-arm exchange (2-MEA); also called bispecific antibody FGA0007/CD3-TRAB

What follows are binders tested against T1, wild-type human FGFR3 (hFGFR3 protein, SEQ ID NO: 1) (human, UniProt P22607 23-804) (assay: flow cytometry on hFGFR3/CHO DXB11s cells).
T1 construct: Full-length cDNA expressed in CHO DXB11s cells; The construct used in PC10/FGFR3 WT cells is not described; also called FGFR3 WT; wild-type hFGFR3
T1 sequence (P22607 other isoform, or with tags, fused parts or gaps): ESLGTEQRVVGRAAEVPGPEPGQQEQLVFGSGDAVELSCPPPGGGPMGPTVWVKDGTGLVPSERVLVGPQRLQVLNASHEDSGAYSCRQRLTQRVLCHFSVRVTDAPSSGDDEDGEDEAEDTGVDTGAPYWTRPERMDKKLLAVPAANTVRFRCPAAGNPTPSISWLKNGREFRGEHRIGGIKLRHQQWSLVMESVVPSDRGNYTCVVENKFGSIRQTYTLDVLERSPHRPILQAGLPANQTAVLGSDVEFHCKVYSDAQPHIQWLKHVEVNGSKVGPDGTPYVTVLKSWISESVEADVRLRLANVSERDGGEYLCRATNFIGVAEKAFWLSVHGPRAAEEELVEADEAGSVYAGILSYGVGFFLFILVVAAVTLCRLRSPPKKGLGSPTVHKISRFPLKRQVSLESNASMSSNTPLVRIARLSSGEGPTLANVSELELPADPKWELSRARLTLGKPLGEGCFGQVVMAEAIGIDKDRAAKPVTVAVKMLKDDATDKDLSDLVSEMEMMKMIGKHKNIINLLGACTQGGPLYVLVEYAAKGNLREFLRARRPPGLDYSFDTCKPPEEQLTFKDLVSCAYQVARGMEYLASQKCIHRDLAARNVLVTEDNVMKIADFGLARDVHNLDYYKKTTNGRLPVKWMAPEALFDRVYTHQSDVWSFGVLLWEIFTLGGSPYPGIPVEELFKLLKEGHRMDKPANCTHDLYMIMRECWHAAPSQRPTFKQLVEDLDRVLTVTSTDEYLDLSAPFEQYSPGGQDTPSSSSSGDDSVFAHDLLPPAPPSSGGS
Description: The binding activity of monospecific antibodies FGA0005 and FGA0007 and bispecific antibodies FGA0005/CD3-TRAB and FGA0007/CD3-TRAB against wild-type hFGFR3 or hFGFR3 S249C mutant on the cell surface of hFGFR3/CHO DXB11s cells and hFGFR3 S249C/CHO DXB11s cells prepared by the method described in Example 1 and parent strain CHO DXB11s cells was measured using flow cytometry.
After 9×10⁶ cells of each cell line were washed with FACS/PBS supplemented with 0.5% BSA, 450 μL of Fixable Viability Dye 780 (eBioscience) diluted 5000 times was added to each of the cells. 25 μL each of the prepared cell suspensions was dispensed into v-bottom 96 well plates (Greiner Bio-one). Monospecific antibodies FGA0005 and FGA0007 with twice the final concentration of 0.01, 0.1, 1 μg/mL were prepared. In addition, bispecific antibodies FGA0005/CD3-TRAB and FGA0007/CD3-TRAB with twice the final concentration of 5, 10, and 20 μg/mL were prepared. 25 μL solutions containing the monospecific antibodies FGA0005 bivalent Ab and FGA0007 bivalent Ab, and the bispecific antibodies FGA0005/CD3-TRAB and FGA0007/CD3-TRAB prepared at a double concentration were added to the v-bottom 96 well plates, and allowed to stand at 4° C. for 30 minutes. After the cells were washed with FACS/PBS, Goat anti-Human IgG Fc Cross-Adsorbed Secondary Antibody, Dylight 650 Conjugate (Invitrogen) diluted 100-fold with FACS/PBS was added at 50 μL each and left to stand at 4° C. for 30 minutes. Cells were washed with FACS/PBS and then analyzed by flow cytometry.
B1: no binding (tested: 0.01, 0.1, 1 µg/mL).
B2: no binding (tested: 0.01, 0.1, 1 µg/mL).
B3: no binding (tested: 5, 10, and 20 µg/mL).
B4: no binding (tested: 5, 10, and 20 µg/mL).
